This is an account of results in patent US10215752 (MIT, dated 2019).

First the molecules themselves.
B1: His-tag Jun (P05412) (other, human)
chain: MTAKMETTFYDDALNASFLPSESGPYGYSNPKILKQSMTLNLADPVGSLKPHLRAKNSDLLTSPDVGLLKLASPELERLIIQSSNGHITTTPTPTQFLCPKNVTDEQEGFAEGFVRALAELHSQNTLPSVTSAAQPVNGAGMVAPAVASVAGGSGSGGFSASLHSEPPVYANLSNFNPGALSSGGGAPSYGAAGLAFPAQPQQQQQPPHHLPQQMPVQHPRLQALKEEPQTVPEMPGETPPLSPIDMESQERIKAERKRMRNRIAASKCRKRKLERIARLEEKVKTLKAQNSELASTANMLREQVAQLKQKVMNHVNSGCQLMLTQQLQTFHHHHHH
notes: Capture protein, expressed on the chip by cell-free synthesis with a His-tag
B2: p16 (P42771) without His-tag (other, human, UniProt P42771 1-156, looked up)
chain: MEPAAGSSMEPSADWLATAAARGRVEEVRALLEAGALPNAPNSYGRRPIQVMMMGSARVAELLLLHGAEPNCADPATLTRPVHDAAREGFLDTLVVLHRAGARLDVRDAWGRLPVDLAEELGHRDVARYLRAAAGGTRGSNHARIDAAEGPSDIPD
notes: also called p16 (noHis)
B3: His-tag CDK4 (P11802) (enzyme, human)
chain: MATSRYEPVAEIGVGAYGTVYKARDPHSGHFVALKSVRVPNGGGGGGGLPISTVREVALLRRLEAFEHPNVVRLMDVCATSRTDREIKVTLVFEHVDQDLRTYLDKAPPPGLPAETIKDLMRQFLRGLDFLHANCIVHRDLKPENILVTSGGTVKLADFGLARIYSYQMALTPVVVTLWYRAPEVLLQSTYATPVDMWSVGCIFAEMFRRKPLFCGNSEADQLGKIFDLIGLPPEDDWPRDVSLPRGAFPPRGPRPVQSVVPEMEESGAQLLLEMLTFNPHKRISAFRALQHSYLHKDEGNPEHHHHHH
notes: as for B1
B4: CDK4 (P11802) without His-tag (enzyme, human, UniProt P11802 1-303, looked up)
chain: MATSRYEPVAEIGVGAYGTVYKARDPHSGHFVALKSVRVPNGGGGGGGLPISTVREVALLRRLEAFEHPNVVRLMDVCATSRTDREIKVTLVFEHVDQDLRTYLDKAPPPGLPAETIKDLMRQFLRGLDFLHANCIVHRDLKPENILVTSGGTVKLADFGLARIYSYQMALTPVVVTLWYRAPEVLLQSTYATPVDMWSVGCIFAEMFRRKPLFCGNSEADQLGKIFDLIGLPPEDDWPRDVSLPRGAFPPRGPRPVQSVVPEMEESGAQLLLEMLTFNPHKRISAFRALQHSYLHKDEGNPE
notes: also called CDK4 (noHis)
B5: His-tag p16 (P42771) (other, human)
chain: MEPAAGSSMEPSADWLATAAARGRVEEVRALLEAGALPNAPNSYGRRPIQVMMMGSARVAELLLLHGAEPNCADPATLTRPVHDAAREGFLDTLVVLHRAGARLDVRDAWGRLPVDLAEELGHRDVARYLRAAAGGTRGSNHARIDAAEGPSDIPDHHHHHH
notes: as for B1
B6: Jun (P05412) without His-tag (other, human, UniProt P05412 1-331, looked up)
chain: MTAKMETTFYDDALNASFLPSESGPYGYSNPKILKQSMTLNLADPVGSLKPHLRAKNSDLLTSPDVGLLKLASPELERLIIQSSNGHITTTPTPTQFLCPKNVTDEQEGFAEGFVRALAELHSQNTLPSVTSAAQPVNGAGMVAPAVASVAGGSGSGGFSASLHSEPPVYANLSNFNPGALSSGGGAPSYGAAGLAFPAQPQQQQQPPHHLPQQMPVQHPRLQALKEEPQTVPEMPGETPPLSPIDMESQERIKAERKRMRNRIAASKCRKRKLERIARLEEKVKTLKAQNSELASTANMLREQVAQLKQKVMNHVNSGCQLMLTQQLQTF
notes: also called Jun (noHis)

The target of assay [1] is T1, Fos (P01100) without His-tag (human, UniProt P01100 1-380).
T1 construct: also called Fos (noHis)
T1 sequence (P01100 whole entry, one chain of several): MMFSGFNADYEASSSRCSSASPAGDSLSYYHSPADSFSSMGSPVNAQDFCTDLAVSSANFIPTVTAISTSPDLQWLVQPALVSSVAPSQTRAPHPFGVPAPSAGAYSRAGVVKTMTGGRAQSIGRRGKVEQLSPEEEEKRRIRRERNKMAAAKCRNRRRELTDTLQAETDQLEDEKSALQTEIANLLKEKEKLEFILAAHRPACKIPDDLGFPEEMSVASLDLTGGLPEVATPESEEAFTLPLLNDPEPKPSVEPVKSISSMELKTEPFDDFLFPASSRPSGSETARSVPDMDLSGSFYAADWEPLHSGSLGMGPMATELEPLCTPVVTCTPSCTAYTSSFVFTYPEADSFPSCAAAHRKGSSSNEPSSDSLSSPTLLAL
As to the kind of experiment: label-free nIR fluorescence (1045 nm) of SWNT/chitosan Ni-NTA array spots; His-tag capture protein expressed on the spot, then cell-free expressed analyte protein without His-tag added; pair label = capture-analyte.

The assay “His-tag CDK4 (P11802)” concerns the target B3. As to the kind of experiment: change of the Ni2+-SWNT distance on adding the analyte, calculated by the Förster equation from nIR fluorescence of the SWNT/chitosan Ni-NTA array.
Assay [2] deals with T2, His-tag Fos (P01100) (human, UniProt P01100 1-380).
T2 construct: Capture protein, expressed on the chip by cell-free synthesis with a His-tag
T2 sequence (P01100 other isoform, or with tags, fused parts or gaps limits assumed): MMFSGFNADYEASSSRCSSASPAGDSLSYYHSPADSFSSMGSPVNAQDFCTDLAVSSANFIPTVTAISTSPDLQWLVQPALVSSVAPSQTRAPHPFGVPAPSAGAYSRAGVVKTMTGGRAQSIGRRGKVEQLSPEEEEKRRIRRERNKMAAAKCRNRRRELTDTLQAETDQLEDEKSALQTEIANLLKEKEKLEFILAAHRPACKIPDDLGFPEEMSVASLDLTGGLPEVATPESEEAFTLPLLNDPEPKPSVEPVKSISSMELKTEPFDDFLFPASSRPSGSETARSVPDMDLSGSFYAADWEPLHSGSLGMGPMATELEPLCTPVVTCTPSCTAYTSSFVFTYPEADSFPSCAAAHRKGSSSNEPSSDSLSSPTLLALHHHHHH
In words: nIR fluorescence spectra (1000-1100 nm) of one SWNT/chitosan Ni-NTA array spot before expression, after the His-tag capture protein and after the analyte protein without His-tag; pair label = capture-analyte.

Assay [3] concerns the target B1. Described as above.
Assay [4] concerns the target B6. As to the kind of experiment: label-free nIR fluorescence (1045 nm) of SWNT/chitosan Ni-NTA array spots; His-tag capture protein expressed on the spot, then analyte protein without His-tag added; pair label = capture-analyte.
Assay [5] has as its target T1, Fos (P01100) without His-tag. In words: nIR fluorescence spectra (1000-1100 nm) of one SWNT/chitosan Ni-NTA array spot before expression, after the His-tag capture protein and after the analyte protein without His-tag; pair label = capture-analyte.
The target of the assay “His-tag p16 (P42771)” is B5. In words: change of the Ni2+-SWNT distance on adding the analyte, calculated by the Förster equation from nIR fluorescence of the SWNT/chitosan Ni-NTA array.
The target of assay [6] is B1. In words: nIR fluorescence spectra (1000-1100 nm) of one SWNT/chitosan Ni-NTA array spot before expression, after the His-tag capture protein and after the analyte protein without His-tag; pair label = capture-analyte. This is another data set of the same source.
The target of assay [7] is T2, His-tag Fos (P01100). The description is as above. The source holds these as a separate data set.
Assay [8] has as its target T1, Fos (P01100) without His-tag. In words: label-free nIR fluorescence (1045 nm) of SWNT/chitosan Ni-NTA array spots; His-tag capture protein expressed on the spot, then analyte protein without His-tag added; pair label = capture-analyte.
Assay [9] deals with B6. In words: nIR fluorescence spectra (1000-1100 nm) of one SWNT/chitosan Ni-NTA array spot before expression, after the His-tag capture protein and after the analyte protein without His-tag; pair label = capture-analyte.
For assay [10], the target named is T2, His-tag Fos (P01100). In words: change of the Ni2+-SWNT distance on adding the analyte, calculated by the Förster equation from nIR fluorescence of the SWNT/chitosan Ni-NTA array.

Like-named read-outs stand apart in the source and are kept apart here.

As to B1, in assay [1], the binding result is recorded as “binds”.

B2: the Δd2 with His-tag CDK4 (P11802) is 0.0634 nm. In addition, the binding result in the assay with His-tag Fos (P01100) [2] and with His-tag Jun (P05412) [3] was “no binding” in each case.

For B3, the binding result in assay [4] and in assay [5] was “no binding” each time.

With B4, the Δd2 with His-tag p16 (P42771) was 0.0517 nm. Besides, the binding result in the assay with His-tag Jun (P05412) [6] and with His-tag Fos (P01100) [7] was “no binding” throughout.

Consider B5, for which the binding result in assay [8] and in [9] was “no binding” throughout.

As for B6, the Δd2 in the assay with His-tag Fos (P01100) [10] is 0.0236 nm.
